Results taken from the supplement of paper PMC9112550, “Optimization of the antimicrobial peptide Bac7 by deep mutational scanning” (BMC Biology, 2022).

What follows are sequences tested on Escherichia coli TOP10 (assay: shrunken log2 fold change of peptide-encoding DNA abundance (4.5 h post-induction vs induction); higher = less antimicrobial activity (less host growth inhibition)). Conditions: time post-induction: 4.5 h; library: site-saturation at positions 5, 18, 19, 20.
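Further: peptides expressed intracellularly from a pBAD plasmid library in pooled LB shake-flask culture, induced with 0.3% L-arabinose, DNA abundance read by NGS, three biological replicates, DESeq2 with apeglm shrinkage.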

| Sequence | shrunken log2 fold change |
| --- | --- |
| RRIRMRPPRLPRPRPRPRMKPRP | 0.447 |
| RRIRDRPPRLPRPRPRPNGLPRP | -0.0178 |
| RRIRQRPPRLPRPRPRPVMMPRP | -0.335 |
| RRIRARPPRLPRPRPRPQTQPRP | 0.628 |
| RRIRFRPPRLPRPRPRPLYHPRP | -0.859 |
| RRIRWRPPRLPRPRPRPTLFPRP | 0.0961 |
| RRIRARPPRLPRPRPRPDRKPRP | 0.0521 |
| RRIRIRPPRLPRPRPRPAAFPRP | -0.234 |
| RRIRVRPPRLPRPRPRPPAWPRP | 0.498 |
| RRIRHRPPRLPRPRPRPINCPRP | 0.00172 |
| RRIRNRPPRLPRPRPRPCRRPRP | -0.103 |
| RRIRYRPPRLPRPRPRPQMHPRP | -0.748 |
| RRIRKRPPRLPRPRPRPRNLPRP | 0.525 |
| RRIRRRPPRLPRPRPRPVLLPRP | 0.103 |
| RRIRPRPPRLPRPRPRPNHGPRP | -0.0975 |
| RRIRRRPPRLPRPRPRPTFEPRP | 0.358 |
| RRIRLRPPRLPRPRPRPLYLPRP | -0.837 |
| RRIRMRPPRLPRPRPRPHSNPRP | 0.0878 |
| RRIRCRPPRLPRPRPRPFRIPRP | -0.128 |
| RRIRYRPPRLPRPRPRPWRQPRP | -0.00152 |
| RRIRGRPPRLPRPRPRPSFWPRP | 0.66 |
| RRIRARPPRLPRPRPRPKAMPRP | 0.00028 |
| RRIRVRPPRLPRPRPRPSAPPRP | 0.358 |
| RRIRQRPPRLPRPRPRPGNIPRP | -0.151 |
| RRIRWRPPRLPRPRPRPHFMPRP | -0.398 |

| Sequence | shrunken log2 fold change |
| --- | --- |
| RRIRVRPPRLPRPRPRPQPRPRP | 0.429 |
| RRIRGRPPRLPRPRPRPNGGPRP | 0.0238 |
| RRIRLRPPRLPRPRPRPAIVPRP | 0.0701 |
| RRIRIRPPRLPRPRPRPCQRPRP | -0.268 |
| RRIRKRPPRLPRPRPRPMEHPRP | -0.0568 |
| RRIRTRPPRLPRPRPRPTYGPRP | -0.104 |
| RRIRHRPPRLPRPRPRPESLPRP | -0.245 |
| RRIRLRPPRLPRPRPRPDSRPRP | 0.0292 |
| RRIRIRPPRLPRPRPRPGVEPRP | -0.0594 |
| RRIRLRPPRLPRPRPRPPWRPRP | 0.445 |
| RRIRFRPPRLPRPRPRPQSMPRP | -0.434 |
| RRIRNRPPRLPRPRPRPAQMPRP | 0.177 |
| RRIRWRPPRLPRPRPRPFQGPRP | -0.249 |
| RRIRIRPPRLPRPRPRPCHHPRP | 0.0314 |
| RRIRWRPPRLPRPRPRPWVCPRP | 0.186 |
| RRIRVRPPRLPRPRPRPIFLPRP | -0.157 |
| RRIRARPPRLPRPRPRPEPGPRP | 0.98 |
| RRIRKRPPRLPRPRPRPLNDPRP | -0.0546 |
| RRIRYRPPRLPRPRPRPAFLPRP | -0.365 |
| RRIRVRPPRLPRPRPRPSARPRP | 0.275 |
| RRIRGRPPRLPRPRPRPPHGPRP | 0.903 |
| RRIRFRPPRLPRPRPRPVWMPRP | -0.119 |
| RRIRTRPPRLPRPRPRPNFSPRP | 0.059 |
| RRIRNRPPRLPRPRPRPGRSPRP | 0.17 |
| RRIRRRPPRLPRPRPRPWFWPRP | 1.76 |

| Sequence | shrunken log2 fold change |
| --- | --- |
| RRIRCRPPRLPRPRPRPGMNPRP | -0.131 |
| RRIRARPPRLPRPRPRPNGTPRP | 0.021 |
| RRIRDRPPRLPRPRPRPEEIPRP | -0.0062 |
| RRIRARPPRLPRPRPRPPMTPRP | 0.88 |
| RRIRNRPPRLPRPRPRPNSFPRP | -0.00469 |
| RRIRARPPRLPRPRPRPCGEPRP | -0.00932 |
| RRIRTRPPRLPRPRPRPYDIPRP | -0.795 |
| RRIRERPPRLPRPRPRPTWVPRP | 0.138 |
| RRIRVRPPRLPRPRPRPPFFPRP | 0.193 |
| RRIRWRPPRLPRPRPRPAQPPRP | 0.236 |
| RRIRGRPPRLPRPRPRPMPIPRP | 0.0958 |
| RRIRQRPPRLPRPRPRPHWKPRP | -0.0878 |
| RRIRVRPPRLPRPRPRPVRIPRP | 0.337 |
| RRIRIRPPRLPRPRPRPFAHPRP | -0.241 |
| RRIRGRPPRLPRPRPRPNHCPRP | -0.112 |
| RRIRGRPPRLPRPRPRPLTWPRP | 0.462 |
| RRIRPRPPRLPRPRPRPYCTPRP | 0.164 |
| RRIRTRPPRLPRPRPRPSEKPRP | -0.0354 |
| RRIRRRPPRLPRPRPRPQWKPRP | 0.016 |
| RRIRHRPPRLPRPRPRPPMFPRP | -0.214 |
| RRIRLRPPRLPRPRPRPTYAPRP | -0.167 |
| RRIRNRPPRLPRPRPRPELEPRP | 0.47 |
| RRIRTRPPRLPRPRPRPKSVPRP | -0.0225 |
| RRIRGRPPRLPRPRPRPLCLPRP | 0.437 |
| RRIRVRPPRLPRPRPRPDTFPRP | -0.0845 |
